In PMC2442654 (PLoS ONE, 2008):

Molecular target: the molecule itself
Assay: thioflavin T fluorescence + AFM (de novo amyloid fibril formation)

B1: recombinant mouse full-length prion protein, MoPrP (23-231), unexposed (natural protein)
chain: not shown
  binding result: binds
